Assay results from patent US10259881 (dated 2019).
Where two headings read alike, the source gives them in different places.

T1: murine CD137 (mouse, UniProt P20334)
T1 chain: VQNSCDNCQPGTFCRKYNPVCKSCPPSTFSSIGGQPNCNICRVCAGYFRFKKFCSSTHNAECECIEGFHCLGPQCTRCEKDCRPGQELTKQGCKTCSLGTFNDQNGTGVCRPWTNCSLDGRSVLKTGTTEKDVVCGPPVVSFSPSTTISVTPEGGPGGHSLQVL


Legend:
human CD137 [1] = target: T2, human CD137 (human, UniProt Q07011); assay: SPR
human CD137 [2] = target: T2, human CD137; assay: SPR; remark: listed apart in the source
human CD137 [3] = target: T2, human CD137; assay: SPR; remark: listed apart in the source
murine CD137 = target: T1, murine CD137
human CD137 [4] = target: T2, human CD137; assay: SPR; remark: listed apart in the source

T2 sequence (Q07011 24-186): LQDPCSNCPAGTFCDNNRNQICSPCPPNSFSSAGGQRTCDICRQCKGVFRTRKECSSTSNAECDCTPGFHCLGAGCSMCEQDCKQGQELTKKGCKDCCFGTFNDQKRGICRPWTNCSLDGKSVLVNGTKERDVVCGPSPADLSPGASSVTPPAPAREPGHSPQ

Row | Kd (human CD137 [1]) | binding result (murine CD137) | Binder | further results
1 | 87.8 nM | – | MSH1 (antibody, V domains shown) VH: QMQLVQSGAEVKKPGASVKVSCKASGYNFGGYYMHWVRQAPGQGLEWMGWVNPHSGGTNYAQKFQGRVTITRDTSASTAYMELSSLRSEDTAVYYCAREGEAWGLDLDLWGQGTLVTVSS VL: SYELTQPPSVSVAPGKTARITCGGNNIGSKSVHWYQQKPGQAPVLVIYYDSDRPSGIPERFSGSNSGNTATLTISRVEAGDEADYYCQVWDSSSVVFGGGTQLTVL | –
2 | 16.6 nM | – | MSB7 (antibody, V domains shown) VH: QMQLVQSGAEVKKPGASVKVSCKASGYSFSGYYMHWVRQAPGQGLEWMGWVNPMSGGTNYAQKFQGRVTITRDTSASTAYMELSSLRSEDTAVYYCAREGMAMRLELDKWGQGTLVTVSS VL: SYELTQPPSVSVAPGKTARITCGGNNIGSKSVHWYQQKPGQAPVLVIYYDSDRPSGIPERFSGSNSGNTATLTISRVEAGDEADYYCQVWDSSSVVFGGGTQLTVL | –
3 | – | no binding | MSC8 (antibody, V domains shown) VH: QMQLVQSGAEVKKPGASVKVSCKASGYNFGGYYMHWVRQAPGQGLEWMGWVNPKSGGTNYAQKFQGRVTITRDTSASTAYMELSSLRSEDTAVYYCAREGEAVGLDLDYWGQGTLVTVSS VL: SYELTQPPSVSVAPGKTARITCGGNNIGSKSVHWYQQKPGQAPVLVIYYDSDRPSGIPERFSGSNSGNTATLTISRVEAGDEADYYCQVWDSSSVVFGGGTQLTVL | Kd (human CD137 [4]): 218 nM

More lines, now with the values behind:

Row | Binder | Kd (human CD137 [1]) | binding result (murine CD137) | further results
4 | MD4 (antibody, V domains shown) VH: QMQLVQSGAEVKKPGASVKVSCKASGYNWTGYYMHWVRQAPGQGLEWMGWINPMAGGTNYAQKFQGRVTITRDTSASTAYMELSSLRSEDTAVYYCAREGWARGVELDMWGQGTLVTVSS VL: SYELTQPPSVSVAPGKTARITCGGNNIGSKSVHWYQQKPGQAPVLVIYYDSDRPSGIPERFSGSNSGNTATLTISRVEAGDEADYYCQVWDSSSVVFGGGTQLTVL | 8.9 nM | – | –
5 | MC8 (antibody, V domains shown) VH: QMQLVQSGAEVKKPGASVKVSCKASGYMPDGYYMHWVRQAPGQGLEWMGWINPRTGGTNYAQKFQGRVTITRDTSASTAYMELSSLRSEDTAVYYCAREGAAFRLELDAWGQGTLVTVSS VL: SYELTQPPSVSVAPGKTARITCGGNNIGSKSVHWYQQKPGQAPVLVIYYDSDRPSGIPERFSGSNSGNTATLTISRVEAGDEADYYCQVWDSSSVVFGGGTQLTVL | – | – | Kd (human CD137 [2]): 30.2 nM
6 | MSA11 (antibody, V domains shown) VH: QMQLVQSGAEVKKPGASVKVSCKASGYSFTGYYMHWVRQAPGQGLEWMGWVNPKSGGTNYAQKFQGRVTITRDTSASTAYMELSSLRSEDTAVYYCAREGWARRIDLDEWGQGTLVTVSS VL: SYELTQPPSVSVAPGKTARITCGGNNIGSKSVHWYQQKPGQAPVLVIYYDSDRPSGIPERFSGSNSGNTATLTISRVEAGDEADYYCQVWDSSSVVFGGGTQLTVL | – | – | Kd (human CD137 [2]): 46.9 nM
7 | MB12 (antibody, V domains shown) VH: QMQLVQSGAEVKKPGASVKVSCKASGYSLEGYYMHWVRQAPGQGLEWMGWINPNSGGTNYAQKFQGRVTITRDTSASTAYMELSSLRSEDTAVYYCAREGEAVGLDLDYWGQGTLVTVSS VL: SYELTQPPSVSVAPGKTARITCGGNNIGSKSVHWYQQKPGQAPVLVIYYDSDRPSGIPERFSGSNSGNTATLTISRVEAGDEADYYCQVWDSSSVVFGGGTQLTVL | – | no binding | Kd (human CD137 [3]): 155 nM
8 | MB3 (antibody, V domains shown) VH: QMQLVQSGAEVKKPGASVKVSCKASGYQMRGYYMHWVRQAPGQGLEWMGWINPNSGGTNYAQKFQGRVTITRDTSASTAYMELSSLRSEDTAVYYCAREGEAVGLDLDYWGQGTLVTVSS VL: SYELTQPPSVSVAPGKTARITCGGNNIGSKSVHWYQQKPGQAPVLVIYYDSDRPSGIPERFSGSNSGNTATLTISRVEAGDEADYYCQVWDSSSVVFGGGTQLTVL | – | no binding | Kd (human CD137 [4]): 229 nM
